Laboratory results reported in US7374920B2, “Ginkgo biloba levopimaradiene synthase” (priority 2001, dated 2008).
“Also recorded” adds a separate entry of the source.

B1: Ser^61: Ginkgo biloba levopimaradiene synthase truncated at Ala^60-Ser^61; amino acid sequence SEQ.ID.NO:35 (protein, listed as Ginkgo biloba)
chain: MSAAETRPDQLPQEERFVSRLNADYHPAVWKDDFIDSLTSPNSHATSKSSVDETINKRIQTLVKEIQCMFQSMGDGETNPSAYDTAWVARIPSIDGSGAPQFPQTLQWILNNQLPDGSWGEECIFLAYDRVLNTLACLLTLKIWNKGDIQVQKGVEFVRKHMEEMKDEADNHRPSGFEVVFPAMLDEAKSLGLDLPYHLPFISQIHQKRQKKLQKIPLNVLHNHQTALLYSLEGLQDVVDWQEITNLQSRDGSFLSSPASTACVFMHTQNKRCLHFLNFVLSKFGDYVPCHYPLDLFERLWAVDTVERLGIDRYFKKEIKESLDYVYRYWDAERGVGWARCNPIPDVDDTAMGLRILRLHGYNVSSDVLENFRDEKGDFFCFAGQTQIGVTDNLNLYRCSQVCFPGEKIMEEAKTFTTNHLQNALAKNNAFDKWAVKKDLPGEVEYAIKYPWHRSMPRLEARSYIEQFGSNDVWLGKTVYKMLYVSNEKYLELAKLDFNMVQALHQKETQHIVSWWRESGFNDLTFTRQRPVEMYFSVAVSMFEPEFAACRIAYAKTSCLAVILDDLYDTHGSLDDLKLFSEAVRRWDISVLDSVRDNQLKVCFLGLYNTVNGFGKDGLKEQGRDVLGYLRKVWEGLLASYTKEAEWSAAKYVPTFNEYVENAKVSIALATVVLNSIFFTGELLPDYILQQVDLRSKFLHLVSLTGRLINDTKTYQAERNRGELVSSVQCYMRENPECTEEEALSHVYGIIDNALKELNWELANPASNAPLCVRRLLFNTARVMQLFYMYRDGFGISDKEMKDHVSRTLFDPVA
B2: Ala^2 (protein, listed as Ginkgo biloba)
chain: MAGVLFANLPCSLQLSPKVPFRQSTNILIPFHKRSSFGFNAQHCVRSHLRLRWNCVGIHASAAETRPDQLPQEERFVSRLNADYHPAVWKDDFIDSLTSPNSHATSKSSVDETINKRIQTLVKEIQCMFQSMGDGETNPSAYDTAWVARIPSIDGSGAPQFPQTLQWILNNQLPDGSWGEECIFLAYDRVLNTLACLLTLKIWNKGDIQVQKGVEFVRKHMEEMKDEADNHRPSGFEVVFPAMLDEAKSLGLDLPYHLPFISQIHQKRQKKLQKIPLNVLHNHQTALLYSLEGLQDVVDWQEITNLQSRDGSFLSSPASTACVFMHTQNKRCLHFLNFVLSKFGDYVPCHYPLDLFERLWAVDTVERLGIDRYFKKEIKESLDYVYRYWDAERGVGWARCNPIPDVDDTAMGLRILRLHGYNVSSDVLENFRDEKGDFFCFAGQTQIGVTDNLNLYRCSQVCFPGEKIMEEAKTFTTNHLQNALAKNNAFDKWAVKKDLPGEVEYAIKYPWHRSMPRLEARSYIEQFGSNDVWLGKTVYKMLYVSNEKYLELAKLDFNMVQALHQKETQHIVSWWRESGFNDLTFTRQRPVEMYFSVAVSMFEPEFAACRIAYAKTSCLAVILDDLYDTHGSLDDLKLFSEAVRRWDISVLDSVRDNQLKVCFLGLYNTVNGFGKDGLKEQGRDVLGYLRKVWEGLLASYTKEAEWSAAKYVPTFNEYVENAKVSIALATVVLNSIFFTGELLPDYILQQVDLRSKFLHLVSLTGRLINDTKTYQAERNRGELVSSVQCYMRENPECTEEEALSHVYGIIDNALKELNWELANPASNAPLCVRRLLFNTARVMQLFYMYRDGFGISDKEMKDHVSRTLFDPVA

Key:
[1] = in vitro assay of levopimaradiene synthase constructs expressed in wild-type S. cerevisiae JBY575; format: biochemical, Saccharomyces cerevisiae; settings: wild-type S. cerevisiae JBY575, galactose 48 hours, lysate with GGDP
Protocol: Expression in S. cerevisiae JBY575, which represents wild-type yeast, was observed. JBY575 cells transformed with pRS426GAL inserted with the putative levopimaradiene synthase were grown in synthetic complete medium lacking uracil and supplemented with 2% glucose and 1.5% agar at 30° C. to saturation and induced with galactose for 48 hours. Cells were harvested, resuspended in lysis buffer, and mixed by vortexing over glass beads. The lysate was assayed with 60 μM GGDP in the presence and absence of 0.2% and 5% Triton X-100.
(§1) All in vitro reactions were extracted 3× with hexane and dried over MgSO4. The reaction was further extracted twice with diethyl ether and dried over MgSO4. Thereafter, the crude lysate was suspended in 100 mM Tris, pH 8.0 containing 2.9 units/mg apyrase (a dephosphorylating agent) and 10 units/μL calf intestinal alkaline phosphatase, incubated at 30° C. for 3 hours, and extracted with diethyl ether as noted above (Croteau and Cane, 1985). The crude reaction mixtures were eluted over SiO2, concentrated, and analyzed by GC and GC/MS.
(§2) Gas chromatography spectra were obtained on a Hewlett Packard 6890 Series GC System equipped with an Rtx-5 capillary column (Restek, 30 m×0.25 mm i.d., 0.10 μm df). The following separation conditions and temperature program were employed: injector port 250° C., FID 250° C., split ratio 39:1, helium flow 20 cm/s (0.6 mL/min), 150° C. hold 5 min, increase to 250° C. (5° C./min), hold 5 min. GC/MS spectra were obtained on a Hewlett-Packard 5890A instrument with a 30-m DB-5 ms column (J&W Scientific Inc., 0.25 mm i.d., 0.10 μm df). The following separation conditions and temperature program were employed: injector port 280° C., transfer lines: 280° C., helium flow at 30 cm/s (1 mL/min) with splitless injection at 150° C. hold 3 min, increase to 250° C. (5° C./min), hold 5 min. Mass spectra (m/z 50 to 500) were obtained on a VG ZAB-HF reverse-geometry double-focusing instrument at 70 eV with an electron-impact ion source (200° C.). Accelerating voltage was set to 8 kV and the resolution was 1000 (10% valley).
(§3) The skilled artisan recognizes that lysis and assay conditions should be optimized. Examples of parameters that can be adjusted to optimize conditions include altering buffer, pH, reductant, reductant concentration, metal cofactors, cofactor concentrations, glycerol concentrations, substrate concentrations, and assay temperatures. […] Maximum soluble protein production and diterpene yield were obtained with the following conditions. Cell cultures were induced with 1 mM IPTG at 20° C. with shaking for 6 hours and lysed by sonication in 30 mM HEPES, pH 7.2, 5 mM DTT, and 5% glycerol. The soluble fraction of the lysate (100 mg/1 mL) was incubated with 20 μM GGDP in 30 mM HEPES, pH 7.2, 5 mM DTT, 5% glycerol, 2 mM MgCl2, and 500 μM MnCl2 overnight at 32° C. Yeast expression was induced with galactose at 30° C. for 48 hours and the cells were lysed and assayed according to the conditions noted.

[2] = in vitro enzymatic assay of levopimaradiene synthase constructs expressed in E. coli BL21(DE3); format: biochemical, Escherichia coli; settings: for diterpene product on bacterial expression: E. coli BL21(DE3), soluble lysate fraction, 20 μM GGDP, overnight at 32° C., GC and GC/MS
Protocol: The desired plasmids were prepared by ligating the mutated gene insert into the similarly digested vectors pET32c(+) (Novagen; Madison, Wis.) and pRS426GAL (Hua, 2000), a multiple copy yeast expression vector. These plasmids was expressed in E. coli BL21(DE3) (Novagen; Madison, Wis.). E. coli cells were grown in Luria-Bertani medium supplemented with 100 μg/mL ampicillin at 37° C. with shaking to OD600 ˜0.6. The following parameters were tested: isopropyl 1-thio-β-D-galactopyranoside (IPTG) concentration (50, 100, 250, 500, and 1000 μM); and temperature and time (20° C. for 2, 3, 4, 6, 21 hours, 22° C. for 6, 8, 16, 19, 22, 45 hours, and 30° C. for 3, 6 hours). The following assay conditions were tested to obtain maximum diterpene product yield: 30 mM HEPES (N-2-hydroxyethylpiperazine-N′-[…]), pH 6.9, 7.2, 7.6, 8.0; 30 mM Tris (tris(hydroxymethyl)aminomethane hydrochloride), pH 7.4, 7.8, 8.2; 1, 5, 10% glycerol; 1, 3, 5, 10, 20 mM DTT (dithiothreitol); 20 mM β-mercaptoethanol; 2, 5, 8% Triton X-100; 5% Tween 80; 0, 2, 7.5, 20, 50 mM MgCl2; 0, 30, 500, 1000 μM MnCl2; 2, 10, 13.3, 20, 40, 80, 200 μM GGDP; and 23° C. and 32° C. assay temperatures.
Optimal soluble protein production and diterpene yield were obtained with the following conditions. Cell cultures were induced with 1 mM IPTG at 20° C. with shaking for 6 hours and lysed by sonication in 30 mM HEPES, pH 7.2, 5 mM DTT, and 5% glycerol. The soluble fraction of the lysate (100 mg/mL) was incubated with 20 μM GGDP in 30 mM HEPES, pH 7.2, 5 mM DTT, 5% glycerol, 2 mM MgCl2, and 500 μM MnCl2 overnight at 32° C.
as §1, §2
as §3, with “Yeast expression was induced with galactose at 30° C. for 48 hours and the cells were lysed and assayed according to the conditions noted.” left out

Row | Molecule | diterpene product on yeast expression [1] | diterpene product on bacterial expression [2] | turnover of GGDP ([2]; bacterial expression, highest expression levels) | diterpene product on yeast expression ([1]; listed as full-length) | diterpene product on bacterial expression ([2]; listed as full-length cDNA) | difference in activity between highest (Ser^61) and lowest (Ala^2) levels ([2]; bacterial expression)
1 | B1 | yielded levopimaradiene as the sole diterpene; also recorded: yielded levopimaradiene synthase activity | produced levopimaradiene as the exclusive diterpene hydrocarbon; also recorded: provided enzymatic activity capable of cyclizing geranylgeranyl diphosphate to levopimaradiene | approximately 1% |  |  | 
2 | B2 | failed to produce observable levels of any diterpene product | produced levopimaradiene as the exclusive diterpene hydrocarbon |  | failed to produce detectable levels of biosynthetic product | provided enzymatic activity capable of cyclizing geranylgeranyl diphosphate to levopimaradiene | approximately 80%
